Where “and” joins values, the source holds several entries; their conditions need not be identical. Identical values can stand only once.
Tested on: Bacillus subtilis DB104 (SP-AmyQ fusion secretion)
Test: AmyQ secretion efficiency, weighted average sort bin (1 = best secretion, 10 = worst) (bin number (weighted average, 1-10)); higher = lower secretion efficiency
Procedure, shortened: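 Occupied alginate beads were sorted by large-particle flow cytometry into 10 equally populated bins according to green/red fluorescence ratio. Each bead (~65 nL) held fluorescein-starch and about 0.3 cells of a B. subtilis DB104 library expressing mature AmyQ fused to designed signal peptides from the amyE locus, and beads were grown about 13 h at room temperature and stained with nile red before sorting. Bin amplicons were Illumina-sequenced, and the secretion score is the read-frequency-weighted average bin number, normalised to beads per bin, excluding low-abundance sequences.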

| Sequence | AmyQ secretion efficiency |
| --- | --- |
| MKRLFMKASLVLFAVVFVFAVKGAPLKAETH | 2.67 |
| MKKWIYVVLVLSIAGIGGFSVHYASS | 8.11 |
| MKKWMILILAGIALFVFISPLKSHKT | 7.86 |
| MKKTIMSFKRKKALSTTAFGAHASAKEI | 7.79 |
| MRKKLKWLSFKRRRKRLLFLFKYQFSNNDS | 8.72 |
| MKRIRIPMTLALGAALTIAPLSFQSAEEN | 6.97 |
| MPTKKKVMKCLAVTLVFGSMSFPTLTNSGGFKE | 7.16 |
| MKRIRIPMTLALGAALTIAPLSFASLEEN | 6.43 |
| MKKTIMSFVAVAALSTTAFGAHASAATI | 2.11 |
| MNKLKRLSMLTVMIASVFIFSSSHALAAQY | 1.68 |
| MRKKRVITCVMAASLTLGSLLPAGYVSAKED | 3.76 |
| MKRLLVSLRVWMVFLMNWVTPDRKTGAAAVY | 6.91 |
| MMRIRIPMTLALGAALTIAPLSFASAEEN | 2.92 |
| MKIRKILLSSALSFGMLISAVPALNAGT | 6.27 |
| MKKLLAAGIIGLLTVSIASPSFKAEK | 5.02 |
| MRSYIKVLTMCFLGLILFVPTALLDNS | 5.28 |
| MFKKHTISLLIIFLLASAVLAKPTEAHTV | 2.68 |
| MKKVMLATALFLGLTFTTFAPAGANAADL | 2.89 |
| MKKKRRKCSICCAAVLLAGGAAQAEAV | 6.1 |
| MKWMCKKCCAAVLLAGGAAQAEAV | 5.26 |
| MRKYTVIASILLSFLSVLFGFHHESKAFPV | 3.04 |
| MKRRRKPYTKKLALGAALTIAPLSFASAEEN | 6.27 |
| MKKWLIIAVSLAIAIVLFMYTKGEPKAAGM | 5.65 |
| MFNRLFRVCFLAALIMAFRKKNSVYAQKP | 7.12 |
| MKQFAITLSVLCALILLVPTLLVIPFQHNKEAPASV | 8.36 |
| MKKMLGKSRYGAGILVFFAVVVKDVFAAGL | 4.68 |

| Sequence | AmyQ secretion efficiency |
| --- | --- |
| MKKIMSARRRRVLLTIFCFSPQASAAYD | 7.27 |
| MSTFLIGAGVAAVILSGWFIADHQTHSQEM | 6.2 |
| MFGTLFRVCFLAALIMAFTLPNSVYAQKP | 2.52 |
| MKSKGSIMACLILFSFTITTFINTETISEFSN | 7.72 |
| MFTNHTISLLIIFLLASAVLAKPIEAHTV | 2.28 |
| MKKRLIGFLVLVPALIMSGITLIEYNKK | 9.98 |
| MLKKKWMVGLLAGCLAAGGFSYNKFATEN | 7.42 |
| MNLRKILLSSALSLGMLVSAAPVLETSS | 7.05 |
| MKLAKRVSALTPSTTLAITAKAAPL | 8.19 |
| MFKKLLLATSALTFSLSLVLDAKAQEV | 2.17 |
| MRKKRVITCVMAASLTLGSLLSPAGYASAKED | 3.22 |
| MPYLKRVLLLLVTGLFMSLFAVTATESAQTG | 4.4 |
| MRKKTKNRLISSVLSTVVISSLLFPGAAGARKK | 2.52 |
| MNLRKILLSSALSLGMLVSAAPVLWTSS | 6.71 |
| MKKVLMAFIICLSLILSVLAAPPSGAKMESV | 4.39 |
| MAIIIAIIAAVIVIAALITFNVRNAKKR | 7.34 |
| MKKWIYIMSFMIVVLVLSIAGIGGFSVHAASS | 4 |
| MKVLLSALLLLLFAFEPSASGAPR | 3.63 |
| MKTKTLKRFSAILTLSIFAPNETFAQTA | 3.24 |
| MRFTKVVGFLSVLGLAAVFPLTTQAEKA | 4.74 |
| MKKLLAAGIIGLSIASPSFAAEK | 4.78 |
| MKKIGLLFMLCLAALRRRKRKRQQADAAEA | 6.59 |
| MGLGKKNLNTMFLSVAVAASFMSLSISLPGVQAAEG | 2.66 |
| MKKLLAAGIIGLLTVSIASPSFGAEK | 4.39 |
| MKKQIITATTAVVLGSTLFAGACSAQSI | 2.49 |
| MKNMSCKLVVSVTLFFSFLDEDPLAHAQNS | 2.75 |

| Sequence | AmyQ secretion efficiency |
| --- | --- |
| MAIIIAIIAAVIVIAALITFNVRNESPG | 7.39 |
| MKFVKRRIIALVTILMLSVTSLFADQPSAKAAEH | 3.52 |
| MKSKGSIMACLILFSFTITTFINTGTISAFSN | 4.33 |
| MKKKQVMLALTAAAGLGLTALHSAPASVVAVAASAKAAPL | 1.02 |
| MKKVLMAFIICLSLILSVLAAPPSGKKAESV | 8.34 |
| MKSCKQKQVCSLAAILLLIPSVSFAADS | 6.15 |
| MKKGIIRFLLVSFVLFFALSTGITGVQSAPA | 4.46 |
| MGFGSTLVVSALSISALALSVSGVASAHEI | 3.47 |
| MTKRGIQAFAGGIILATAVLAAVFRLTTFDQAAAV | 5.37 |
| MGLGKKLSVAVAASFMSLSISLPGQQAAEG | 3.99 |
| MKRSISIFITCLLITLLTMGGMIASPASTAGT | 4.46 |
| MKKAFILSAAAAVGLFTFIAVSVASAKEL | 3.67 |
| MKKKLAAGLTASAIVGTTLVVTPAEAATR | 2.36 |
| MLKKIALTLCPAIVGSLLFFTAPSSAHVS | 3.86 |
| MNIKKFAKQATVLTFTTALLAGGATQAFAKET [wt_31] | 3.5 |
| MNKFLKSNRFLLAAALGISLLASSNFIKASND | 4.66 |
| MAIIIAIIAAVIVIAALITFNVWNASPG | 7.05 |
| MKLSVKIRKVLTVAAAAMTAKMYATAKGN | 6.94 |
| MKWMCSICCAAVLGAAQAEAV | 4.75 |
| MNKLKRLSMLTVMIASVFIFSSHALAADD | 4.21 |
| MKKWMITIAMLKKAGIALFVFISPLKSHKT | 6.51 |
| MKKQIITATTAVVLGSTLFAGAGSAQSI | 1.62 |
| MKKLLAAGIIGLLTVSIASPSFPAEK | 7.88 |
| MRKKRTSNFNMIVITCVMAASLTLGSLLPAGYATAKED | 3.08 |
| MPYLMMVLLLLVTGLFMSLFAVTATASAQTG | 1.47 |
| MNFKKTVVSALSISALALSVSGVASAHSD | 2.93 |

| Sequence | AmyQ secretion efficiency |
| --- | --- |
| MTTKFTALAVFLLCFMPAAVIEHTQASLL | 5.46 |
| MGMKKKLSLGVASAALGLALVGGGSWAAFN | 6.13 |
| MLKKIGYQGCPRSYGSLLFFTAPASAHVS | 7.75 |
| MKLSVKIAGVLTVAAAAMRKKMYATAKGN | 7.43 |
| MTMLRKIIGWILLLCIIPLFAFTVIASPKEV | 7.22 |
| MKKGIIRFLLVSFVLFFALSTGITGVQLAPA | 5.59 |
| MRKKRRRVITCVMAASLTLGSLLPAGYATAKED | 3.9 |
| MRGKSAVLLSLIMLIAGFLIDFSFQM | 7.67 |
| MKLKSKLLLSCLALSTVFVATTIANCPTH | 7.55 |
| MKKKIVAGLAVSAVVRRRRAAAPAEAKTI | 7.4 |
| MNFKKTVVSALSISALALSVSGVASGHEI | 4.67 |
| MKNMSCKLVVSVTLFFSFLTIGPLAHFQNS | 5.82 |
| MKRLFMKASLVLFAVVFVFAVKGADEEDEEEAKAETH | 7.15 |
| MKKLVLCVSILAVILSGVALTQLS | 5.95 and 6.59 and 6.66 |
| MKKRKRRNFKRFIAAFLVLALMISLVPADFLAKST | 4.42 |
| MKRLLSTLLIGIMLLTFAPSAFAAQD | 1.6 |
| MKKKLAAGLTASAIVGTTLVVTPAEKATI | 7.23 |
| MNKPTKLFSTLALAAAAAAGGAGTIHAQQP | 1.43 |
| MKKRMMMIMFFGPIILAFILFAGAIAIPS | 7.34 |
| MRKYTQIASILLSFLSVLSGGHHESKAFPV | 6.41 |
| MFSIFSLIMMTGLLFGLTSPAFAAEK | 4.78 |
| MKLAKRNFMISMVSALTPSTTLAITAKAKEL | 7.41 |
| MLCVMMLLFSAIASFPVSAQMKDQ | 6.09 |
| MKKKQVMLALTAAAGLGLTALHSAPAVAGAAKAAPL | 2.43 |
| MLIRKRRNFKRFIAAFLVLALMISLVPADVLAKST | 1.85 |
| MIAYFGKCRKRRTIMFLGVLFGMQQANHG | 4.01 |

| Sequence | AmyQ secretion efficiency |
| --- | --- |
| MKSKGSIMACLILFSFTITTFINTETISTFSN | 7.54 |
| MKNMSCKLVVSVTLFFSFLGGGPLAHAQNS | 1.53 |
| MKLWMRKTLVVLFTIVTFGLVSPPAALMQDKP | 2.54 |
| MLKKKWMVGLLAGCLAGFSYNAFATEN | 5.96 |
| MRSYIKVLTMCFLGLILFVPALADNS | 6.75 |
| MPIKKKVMMCLAVTLVFGSMSFPTLTNKGGFKE | 7.01 |
| MTKLKMLSMLTVMIASLFIFSSQALMVQY | 5.71 |
| MFKKHQRRQRIIFLLASAVLAKPIEAHTV | 6.33 |
| MKLKKRVSMTSKSSGSCRSLFVTPAKAVKT | 7.23 |
| MAIIIAIIAAVIVIAALITFNVHNASPG | 7.6 |
| MKKSQYFIVFICFFVLFSVHPIASAAADS | 4.61 |
| MKLRKVLTGSVLSLGLLEKDSPAFATSP | 6.38 |
| MKRIRIPMTLALGAALTIAPLSFASAAKR | 4.18 |
| MKRKSMSFSLSNLLSSLAISALSLGLLVSAPTASFAAES | 2.5 |
| MKRSMLFILVLSFLSIIVAYPIQTNASPM | 2.84 |
| MKKIKKRKFMFGLVMGFSQFQPSTVFAADK | 7.57 |
| MPIKKKVMMCLAVTLVFGSMSFPTLTNSGGDED | 6.4 |
| MLKKIALTLCPAIVGSLLFFTAPWSAHVS | 4.74 |
| MGLGKKLSVAVAASFMSLSISLPGVAAGFVFVQAAEG | 4.93 |
| MLCVMMLLFSAIASFPVSDQAKDQ | 5.98 |
| MMIKQCVICLSLLVFGTTASGTAHAEET | 2.45 |
| MNKPTKQRTKLALAAGMTAAAAGGAGTIHAQQP | 6.94 |
| MFRKLLSSLAISALSLGLLVSAPTASFAAES | 5.47 |

Source: the supplement of paper PMC9942255
